Reference: the domain aggregation screens of Martell et al. (2025)

test: soluble fraction after stress (log2 fold change); higher = more stays soluble; pooled small domains, quantitative proteomics; conditions: stress: 50 degC
In short: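 The stress applied to every library was 50°C. These custom libraries of small protein domains were pooled and measured at high throughput with quantitative proteomics as the read-out. Aggregation propensity is expressed as the base-two logarithm of the fold change in how much of each protein remains soluble. The higher the value, the more of that protein stays in solution.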

| Sequence | soluble fraction (log2) |
| --- | --- |
| HMEILTRQLTHYLHLLPPAQQEVVRGVYLQDQTLQEIADRVQIPLGTVKSRLRLGLSKLREQIEQEHE | -0.916 |
| HMTEWDDATVKDAVEYFMSVNGRVPTVTDFKKENGLPSHPVIKQRYKINLHEWLNKNFPTYY | -0.544 |
| HMSQLSDEQELRDIARGIIEGNPNEAEKYRAGRTGLLGFFVGKLMAETEGKANPRLASRILKELLE | -0.0477 |
| HMNSILFAITKEGGVVYGGKPVGVNGVRPLVRRLLQSEEMPVILQVDEKADAGLVIRVIDESKLGGASKV | -0.269 |
| HMGGTTLIAKQATVTGDIQFSSNLDIEGRVVGAISVEPGKEAMLHVVEGGSVEGEIRVPSAVINGKVTGDI | 0.101 |
| HMKNEFRVYPNPANKEIVTFNQTQDIEVYDTLGKLVLKAKNTNTLDTKSFHSGIYFIKTGSGLTRKLVV | 0.107 |
| HMSKQQFLDELAARLREEGAELLVAENLNFYRSYIEEEVAKGRSEEEVLAELGNPALIARSILDAAGF | -0.153 |
| HMGAPVIYELTAESAAGQRIDKYLSGQLADLSRSYLQKLLKDGGVEVNKKPVKSNYKLSEGDQIRLEVPEA | 0.207 |
| HMNPTSLTFRSNVKDGKVYVDGIFKGSSDLDFDLPKGRHSIRIEKDGYVPFAKTINLIKALVIDFNMEKA | -1.83 |
| HMSDLQTGDINQDGTVDEKDLSLLHSYNLELIKTISNAADLNEDGVINGLDEAYLKRLFLQNSDP | -0.0614 |
| HMDQTIFFGQQKAINNLSTDAGLSATELDEYLKKRYKRPLYQLTQAEGAEIIKGFQDGALSRSSILDYTK | -0.00165 |
| HMDTSKIDYSEFITMLDKGEVESVVLKSDTLTVTLKHGTGMAAQTKTVTLMEDLSELTKRLEKAGVKSFDK | 0.306 |
| HMRLLAESIARGLDPEGSGGLWAKEAGAEALKLMETLAAEAPHGGSFTAAAYRDLFESLVHQGEVREA | 0.0472 |
| HMEETGFYIKLQDQEVVIFHNDQVTPYEYTGIREEVLPESELEKLREGFFVEDEKELYSVLENLS | -0.142 |
| HMYSQEEKRYMEIMEIKPQELSAENLKKQYKKLVKKYHPDLHQDDKQAAEEKFKQLTNAYQVLMRRF | 0.0779 |
| HMGVVEEVAADFEGRAVVGKVDVDEQTELARRFGIMSIPTLVVMKGGKVVEQAVGARGKADIAAMLERH | 0.0848 |
| HMFEQRLRQAMKELRLKQVQVAGLTGKSRGAISQYLSGDRVPPDGVQREMAIALGLEADYFSR | -0.408 |
| HMTDKLIAYSVDGILNVITSEAQSVKVYAIDGRLVRILQLGEGRNEVSGLAKGIYIVDNRKVAV | -1.71 |
| HMGTMKGFVDGSSVHLRSGPSLSESIRAKVVKGQTLYITERRGDWYRATVHGGGEGWIHTSLVKLAG | 0.178 |

| Sequence | soluble fraction (log2) |
| --- | --- |
| HMAPKVTLNETETAIFEKMQQEKQLLLSELRTHFDISNKLWDTSIKTLTKNQLLTVSKEADLLWIKL | -0.658 |
| HMTDIKYLIADGNDIKHWDTASSSYVKVSELPLTSDKFKIYGDDIYHKERTGIIAASPILKIWSPSAE | 0.369 |
| HMEEQIEVPVQINGKVRSKLTVAPETDEKQIEALALADPKVQQQLEGKRVLKVIVAQKRLVNIVA | -0.0336 |
| HMFDENVKLIENEYDVSIISRGSELKVMGDVENVDKAARALRSMLAMINKGESLTEQNVRYVLTLVNEGNE | -0.527 |
| HMNTPALRQRTQDVPALLIHFAKYFATKGQTPISFAPDFLEALKDYPWPGNVRELRNLVESMVV | -0.0746 |
| HMEAYDTMEDRTTLAPGFAKLDKRERYILHLRFFEGLTQSQIAERVGISQMHVSRLIRRSLEKLREEIGD | -0.671 |
| HMSADEVSQQLTSEQTKSKSYQALLQAYAAYQQKSFDDAALELQNVQQDVLSDSQKTIYNTISQAVNS | 0.185 |
| HMNKPKIIINSVDDSVFSDYVKDSLSIAEVARSIGIDNNKINTSVYREIHKRIDSLKLDTSHFTGGAWN | -0.174 |
| HMSNLENSLNESLSLLKSNKYNEALEILKKIEIEDSRVFFLLGTIYSVMKNINLGEEFLIKASK | -1.48 |
| HMSIGPQMAGRRVLSGDLIARLEAFEGTVVLGRGVAREDALLIATQAGHVRWEPASRRLWVDSTA | -0.458 |
| HMGDAPLITVDKRTIKVNGAKAQIQVYDTTGRLVKNVSPAGKLTLIEMAKPGIFIVHTQSMSFKVVL | -0.448 |
| HMTDRKRDAIVQAAIGEFREHGFNGTSMDRVAAAADVSKRTVYNHFPSKEELFEAILLLMWE | -2.09 |
| HMEISNWLEEIGLSRYTETLSEFPLEDLVEFTDDDFKELGVLTPHRKKLLAAIATLNNDASSN | -0.255 |
| HMVDPAEASKRAREYLDALPADDLKDVIRQFSATLAEGSVVLGYFQRSGLKSKVVKTALEQFVASTILSK | -0.167 |
| HMEVKSGFVHLTGAVKSPGVYPISIGMRLFEVIALAGGFTAKADRESVNLARTVTDGEQIIVSGSG | -1.7 |
| HMGARHPLPYPFARAHGLLLEADGERSTLWASTNVSPAALSEVMRKYAVDVIEEEPPETLSQRIAAAYAA | 0.0215 |
| HMIDDNTIIQIGDSYSKSIRLLGEPIELKNRSLNQKSYFMAVYDFKGRRYRLFFENDVLFDILRD | -1.86 |
| HMHPLFRVVLAGEPNGVGLDDWLTRHEAELINGPSAIGVLTVKIAMGRRSFETVLDEIRADGETIFVEPV | -2.66 |
